According to the Human Domainome abundance scans (Beltran et al. 2025):
± gives the uncertainty stated by the source.

B1: SAM and SH3 domain-containing protein 1, residues 630 to 700; numbered along this chain, O94885 (parent)
chain: GRPPQPKSVEDLLDRINLKEHMPTFLFNGYEDLDTFKLLEEEDLDELNIRDPEHRAVLLTAVELLQEYDSN

Variants of: B1
Test: abundance fitness (aPCA) (normalised: wild type 0, dead -1); higher = more abundant; growth selection in yeast, the domain comes from the species named
Settings: Homo sapiens

Variant	abundance fitness
GRPPQPKSVPDLLDRINLKEHMPTFLFNGYEDLDTFKLLEEEDLDELNIRDPEHRAVLLTAVELLQEYDSN	-0.357 ± 0.05
GRPPQPKSVQDLLDRINLKEHMPTFLFNGYEDLDTFKLLEEEDLDELNIRDPEHRAVLLTAVELLQEYDSN	-0.445 ± 0.066
GRPPQPKSVSDLLDRINLKEHMPTFLFNGYEDLDTFKLLEEEDLDELNIRDPEHRAVLLTAVELLQEYDSN	-0.423 ± 0.046
GRPPQPKSVTDLLDRINLKEHMPTFLFNGYEDLDTFKLLEEEDLDELNIRDPEHRAVLLTAVELLQEYDSN	-0.559 ± 0.052
GRPPQPKSVVDLLDRINLKEHMPTFLFNGYEDLDTFKLLEEEDLDELNIRDPEHRAVLLTAVELLQEYDSN	-0.413 ± 0.053
GRPPQPKSVWDLLDRINLKEHMPTFLFNGYEDLDTFKLLEEEDLDELNIRDPEHRAVLLTAVELLQEYDSN	-0.511 ± 0.086
GRPPQPKSVYDLLDRINLKEHMPTFLFNGYEDLDTFKLLEEEDLDELNIRDPEHRAVLLTAVELLQEYDSN	-0.418 ± 0.055
GRPPQPKSVEALLDRINLKEHMPTFLFNGYEDLDTFKLLEEEDLDELNIRDPEHRAVLLTAVELLQEYDSN	-0.607 ± 0.061
GRPPQPKSVECLLDRINLKEHMPTFLFNGYEDLDTFKLLEEEDLDELNIRDPEHRAVLLTAVELLQEYDSN	-0.795 ± 0.079
GRPPQPKSVEELLDRINLKEHMPTFLFNGYEDLDTFKLLEEEDLDELNIRDPEHRAVLLTAVELLQEYDSN	0.148 ± 0.049
GRPPQPKSVEFLLDRINLKEHMPTFLFNGYEDLDTFKLLEEEDLDELNIRDPEHRAVLLTAVELLQEYDSN	-0.925 ± 0.08
GRPPQPKSVEGLLDRINLKEHMPTFLFNGYEDLDTFKLLEEEDLDELNIRDPEHRAVLLTAVELLQEYDSN	-0.649 ± 0.08
GRPPQPKSVEHLLDRINLKEHMPTFLFNGYEDLDTFKLLEEEDLDELNIRDPEHRAVLLTAVELLQEYDSN	-0.78 ± 0.067
GRPPQPKSVEILLDRINLKEHMPTFLFNGYEDLDTFKLLEEEDLDELNIRDPEHRAVLLTAVELLQEYDSN	-1.08 ± 0.11
GRPPQPKSVEKLLDRINLKEHMPTFLFNGYEDLDTFKLLEEEDLDELNIRDPEHRAVLLTAVELLQEYDSN	-0.766 ± 0.088
GRPPQPKSVELLLDRINLKEHMPTFLFNGYEDLDTFKLLEEEDLDELNIRDPEHRAVLLTAVELLQEYDSN	-0.9 ± 0.057
GRPPQPKSVEMLLDRINLKEHMPTFLFNGYEDLDTFKLLEEEDLDELNIRDPEHRAVLLTAVELLQEYDSN	-0.97 ± 0.088
GRPPQPKSVENLLDRINLKEHMPTFLFNGYEDLDTFKLLEEEDLDELNIRDPEHRAVLLTAVELLQEYDSN	-0.605 ± 0.067
GRPPQPKSVEPLLDRINLKEHMPTFLFNGYEDLDTFKLLEEEDLDELNIRDPEHRAVLLTAVELLQEYDSN	-0.92 ± 0.071

Variant	abundance fitness
GRPPQPKSVEQLLDRINLKEHMPTFLFNGYEDLDTFKLLEEEDLDELNIRDPEHRAVLLTAVELLQEYDSN	-0.319 ± 0.052
GRPPQPKSVERLLDRINLKEHMPTFLFNGYEDLDTFKLLEEEDLDELNIRDPEHRAVLLTAVELLQEYDSN	-0.926 ± 0.07
GRPPQPKSVESLLDRINLKEHMPTFLFNGYEDLDTFKLLEEEDLDELNIRDPEHRAVLLTAVELLQEYDSN	-0.749 ± 0.052
GRPPQPKSVETLLDRINLKEHMPTFLFNGYEDLDTFKLLEEEDLDELNIRDPEHRAVLLTAVELLQEYDSN	-0.818 ± 0.064
GRPPQPKSVEVLLDRINLKEHMPTFLFNGYEDLDTFKLLEEEDLDELNIRDPEHRAVLLTAVELLQEYDSN	-0.852 ± 0.068
GRPPQPKSVEWLLDRINLKEHMPTFLFNGYEDLDTFKLLEEEDLDELNIRDPEHRAVLLTAVELLQEYDSN	-0.793 ± 0.093
GRPPQPKSVEYLLDRINLKEHMPTFLFNGYEDLDTFKLLEEEDLDELNIRDPEHRAVLLTAVELLQEYDSN	-0.717 ± 0.067
GRPPQPKSVEDALDRINLKEHMPTFLFNGYEDLDTFKLLEEEDLDELNIRDPEHRAVLLTAVELLQEYDSN	-0.846 ± 0.065
GRPPQPKSVEDCLDRINLKEHMPTFLFNGYEDLDTFKLLEEEDLDELNIRDPEHRAVLLTAVELLQEYDSN	-0.654 ± 0.077
GRPPQPKSVEDDLDRINLKEHMPTFLFNGYEDLDTFKLLEEEDLDELNIRDPEHRAVLLTAVELLQEYDSN	-0.784 ± 0.089
GRPPQPKSVEDELDRINLKEHMPTFLFNGYEDLDTFKLLEEEDLDELNIRDPEHRAVLLTAVELLQEYDSN	-0.768 ± 0.084
GRPPQPKSVEDHLDRINLKEHMPTFLFNGYEDLDTFKLLEEEDLDELNIRDPEHRAVLLTAVELLQEYDSN	-0.924 ± 0.096
GRPPQPKSVEDILDRINLKEHMPTFLFNGYEDLDTFKLLEEEDLDELNIRDPEHRAVLLTAVELLQEYDSN	-0.328 ± 0.067
GRPPQPKSVEDKLDRINLKEHMPTFLFNGYEDLDTFKLLEEEDLDELNIRDPEHRAVLLTAVELLQEYDSN	-0.99 ± 0.12
GRPPQPKSVEDNLDRINLKEHMPTFLFNGYEDLDTFKLLEEEDLDELNIRDPEHRAVLLTAVELLQEYDSN	-0.794 ± 0.088
GRPPQPKSVEDPLDRINLKEHMPTFLFNGYEDLDTFKLLEEEDLDELNIRDPEHRAVLLTAVELLQEYDSN	-0.916 ± 0.093
GRPPQPKSVEDQLDRINLKEHMPTFLFNGYEDLDTFKLLEEEDLDELNIRDPEHRAVLLTAVELLQEYDSN	-0.679 ± 0.077
GRPPQPKSVEDSLDRINLKEHMPTFLFNGYEDLDTFKLLEEEDLDELNIRDPEHRAVLLTAVELLQEYDSN	-0.75 ± 0.057
GRPPQPKSVEDTLDRINLKEHMPTFLFNGYEDLDTFKLLEEEDLDELNIRDPEHRAVLLTAVELLQEYDSN	-0.829 ± 0.071
